Experimental data: paper PMC5566211

Legend:
Experiment in all cases: purified protein
Conditions in all cases: phosphate-buffered saline 50 mM, pH 7.0, 37 °C
[1] = test system: Cc1nnc(SCC2=C(C(=O)O)N3C(=O)[C@@H](NC(=O)Cn4cnnn4)[C@H]3SC2)s1
[2] = test system: CC(=O)OCC1=C(C(=O)O)N2C(=O)[C@@H](NC(=O)Cc3cccs3)[C@H]2SC1
[3] = test system: CO/N=C(\C(=O)N[C@@H]1C(=O)N2C(C(=O)O)=C(COC(C)=O)CS[C@H]12)c1csc(N)n1
[4] = test system: CC1=C(C(=O)O)N2C(=O)[C@@H](NC(=O)[C@H](N)C3=CCC=CC3)[C@H]2SC1
[5] = test system: C[C@@H](O)[C@H]1C(=O)N2C(C(=O)O)=C(S[C@@H]3CN[C@H](C(=O)N(C)C)C3)[C@H](C)[C@H]12
[6] = test system: C[C@H]1[C@H](NC(=O)/C(=N\OC(C)(C)C(=O)O)c2csc(N)n2)C(=O)N1S(=O)(=O)O
[7] = test system: CCN1CCN(C(=O)N[C@@H](C(=O)N[C@@H]2C(=O)N3C(C(=O)O)=C(CSc4nnnn4C)CS[C@H]23)c2ccc(O)cc2)C(=O)C1=O
[8] = test system: Cc1onc(-c2ccccc2)c1C(=O)N[C@@H]1C(=O)N2[C@@H]1SC(C)(C)[C@@H]2C(=O)O
[9] = test system: CO/N=C(\C(=O)N[C@@H]1C(=O)N2C(C(=O)[O-])=C(C[N+]3(C)CCCC3)CS[C@H]12)c1csc(N)n1
[10] = test system: CO/N=C(\C(=O)N[C@@H]1C(=O)N2C(C(=O)O)=C(CSc3nc(=O)c(=O)[nH]n3C)CS[C@H]12)c1csc(N)n1
[11] = test system: CC(C)(O/N=C(\C(=O)N[C@@H]1C(=O)N2C(C(=O)[O-])=C(C[n+]3ccccc3)CS[C@H]12)c1csc(N)n1)C(=O)O

**Q.** PAD-1 (Paramesorhizobium deserti) was tested. Which Km [1] did it give?
**A.** 89.16 µM

**Q.** What about the kcat [1] of the same substance?
**A.** 22.6 s⁻¹

**Q.** What about the kcat/Km [1] of the same substance?
**A.** 253000 M⁻¹ s⁻¹

**Q.** And the Km [2]?
**A.** 91.59 µM

**Q.** What about the kcat [2] of the same substance?
**A.** 15.2 s⁻¹

**Q.** What about the kcat/Km [2] of the same substance?
**A.** 166000 M⁻¹ s⁻¹

**Q.** What about the Km [3] of the same substance?
**A.** 137.08 µM

**Q.** What about the kcat [3] of the same substance?
**A.** 20.1 s⁻¹

**Q.** And the kcat/Km [3]?
**A.** 146000 M⁻¹ s⁻¹

**Q.** And the Km [4]?
**A.** 347.9 µM

**Q.** What about the kcat [4] of the same substance?
**A.** 31.8 s⁻¹

**Q.** What about the kcat/Km [4] of the same substance?
**A.** 91300 M⁻¹ s⁻¹

**Q.** And the Km [5]?
**A.** 389.69 µM

**Q.** What about the kcat [5] of the same substance?
**A.** 24.2 s⁻¹

**Q.** And the kcat/Km [5]?
**A.** 62200 M⁻¹ s⁻¹

**Q.** What about the Km [6] of the same substance?
**A.** 276.08 µM

**Q.** What about the kcat [6] of the same substance?
**A.** 39 s⁻¹

**Q.** What about the kcat/Km [6] of the same substance?
**A.** 141000 M⁻¹ s⁻¹

**Q.** What about the Km [7] of the same substance?
**A.** 47.80 µM

**Q.** What about the kcat [7] of the same substance?
**A.** 15.1 s⁻¹

**Q.** And the kcat/Km [7]?
**A.** 315000 M⁻¹ s⁻¹

**Q.** What about the Km [8] of the same substance?
**A.** 383.96 µM

**Q.** And the kcat [8]?
**A.** 58.7 s⁻¹

**Q.** What about the kcat/Km [8] of the same substance?
**A.** 153000 M⁻¹ s⁻¹

**Q.** And the Km [9]?
**A.** 108.40 µM

**Q.** And the kcat [9]?
**A.** 10.4 s⁻¹

**Q.** And the kcat/Km [9]?
**A.** 95900 M⁻¹ s⁻¹

**Q.** What about the Km [10] of the same substance?
**A.** 90.84 µM

**Q.** And the kcat [10]?
**A.** 16.3 s⁻¹

**Q.** What about the kcat/Km [10] of the same substance?
**A.** 179000 M⁻¹ s⁻¹

**Q.** And the Km [11]?
**A.** 110.04 µM

**Q.** What about the kcat [11] of the same substance?
**A.** 12.1 s⁻¹

**Q.** What about the kcat/Km [11] of the same substance?
**A.** 110000 M⁻¹ s⁻¹
